Data taken from publication PMC6733660 (Virology, 2019).
Residue numbers refer to the chain shown, from its start.

T1: Pep-8 (gp350 aa 142–161) (Epstein-Barr virus, strain B95-8)
T1 chain: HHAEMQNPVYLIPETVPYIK

B1: humanized 72A1 (h72A1) (antibody, V domains shown)
VH: EVQLVESGGGLVQPGGSLRLSCAASGSSFTDYTMNWMRQSPGKGLEWIGLINPYNGGTRYADSVKGRATLSLDKSKNTAYLQMNSLRAEDTAIYYCAGGLRRVNWFAYWGQGTLVTVSS
VL: DAQLTQSPILLSASVGDRVTITCRSSTGAVTTSNYANWVQERTNGSFRGLIGGTNNRVPGVPSRFSGSLSGDDATLTISSLQPEDEADYFCVLWHSNHWVFGAGTKVEIK
B2: HB17 (antibody, V domains shown)
VH: ELVIPGASVKVSCKASGYTFTSYWIHWVKQWPGQGLEWIGEINPNNGHTNYNEKFKSKATLTVDKSSSTAYMQLSSLTSEDSAVYYCARNLFYYSRPDYWGQGTSVTVSS
VL: SLSASLGDRVTISCRASQDIGNYLNWYQQKPDGTIKLLIYYTSRLHSGVPSRFSGSGSGTDYSLTISNLEEEDIATYFCQQGNTLPPTFGGGTKLEIK
B3: HB10 (antibody, V domains shown)
VH: B2 VH with I4R, V11L, I25M, L36P, N45S, K54R, S57N, F92Y, S95G
VL: B2 VL with I35V
B4: HB3 (antibody, V domains shown)
VH: B2 VH with I4R, V11L, T21A, I25M, H26Q, K54R, S57N, T60S, F92Y, S95G
VL: B2 VL
B5: HB7 (antibody, V domains shown)
VH: ELVRPGASVKLSCKALGYTFTDYEMHWVKQTPVHGLEWIGTISPGRSGTAYNQKFKGKATLTADKSSRTAYMELNSLTSEDSAVYYCSRYGHPSYLDVWGAGTTVTVSS
VL: FMSTSVGDRVNITCKASQSVGNAVAWFQQKPGQSPKLLIYSASNRYTGIPDRFTGSGSGTDFTLTCNNMQSEDLADYFCQQYSSYPLTFGAGTKLELK
B6: HB8 (antibody, V domains shown)
VH: ELKKPGETVKISCKASGYSFTNYGMNWVKQAPGKGLKWMGWINTYTGEPTYADDFKGRFAFSLETSASTAFLQINNLKNEDTATYLCARYYYGSVYSAWFAYWGQGTLVTVSA
VL: LSLPVSLGDQASISCRSSQSIVHSNGNTYLEWYLQKAGQSPKLLIYKVSNRFSGVPDRFGGSGSGTDFTLKISRVEAEDLGVYYCFQGSHVPYTFGGGTKLEIK
B7: HB9 (antibody, V domains shown)
VH: GGLVKPGGSLKLSCAASGFTFSSYTMSWVRQTPEKRLEWVATISSGGSYIYYPDSVKGRFTISRDNAKNTLYLQMSSLKSEDTAIYYCTREDFYYGSSYGFFDVWGAGTTVTVSS
VL: B6 VL
B8: HB2 (antibody, V domains shown)
VH: ELKKPGETVKISCKASGYTFTAYSMHWVKLTPGKGLKWMGWINTKTGEPTYADDFKGRFAFSLETSASTAYLQINNLKNEDTATYFCAPYGYALDYWGQGTSVTVSS
VL: ILSASPGEKVTMTCRATSSVNYMHWYQQKPGSSPKPWIYATSNLASGVPARFSGSGSGTSYSLTISRVEAEDAATYYCQQWSSNPPTFGAGTKLELK
B9: HB6 (antibody, V domains shown)
VH: B8 VH with K3R, A22D, L30Q, K45R, T50R
VL: B8 VL
B10: HB14 (antibody, V domains shown)
VH: SGAELVRPGASVNLSCKALGYTFTDYEMHWVKQTPVYGLEWIGTIHPRRGGTAYNQRFKGKAALTADKSSSTAYMELSSLTSEDSAVYYCARYGYPWYFDVWGAGTTVTVSS
VL: SLPVSLGDQASISCRSSQSIVHDNGNTYLEWYLQKPGQSPKLLIYKVSNRFSGVLDKFSGSGSGTDFTLKISRVEAEDLGIYYCFQGSHVPPTFGGGTKLEIK
B11: HB22 (antibody, V domains shown)
VH: GLVAPSQSLSITCTVSGFSLTNYGIHWVRQPPGKGLEWLVVIWSDGSTIYNSALKSRLSISKDNSKSQVFLKMNSLQTDDTAMYYCARNYYGNSYPAWFAYWGQGTLVTVSA
VL: B10 VL with D23S, L55P, K57R, K70R, I81V, P92W
B12: HB20 (antibody, V domains shown)
VH: B2 VH with I4K, V11L, H26Q, W31R, N45T, S57T, Q73R, F92Y, S95G
VL: B2 VL with I35V, E71Q, T84A
B13: murine 72A1 (m72A1) (antibody, V domains shown)
VH: EVQLQQSGPELVKPGTSMKISCKASGSSFTDYTMNWMKQSHGKNLEWIGLINPYNGGTRYNQKFKGKATLTLDKSSSTAYMEVLSLTSEDSAVYYCAGGLRRVNWFAYWGQGTLVSVSA
VL: QAVLTQESALTTSPGETVTLTCRSSTGAVTTSNYANWVQEKPDHLFTGLIGGTNNRVPGVPARFSGSLIGDKAALTITGAQTEDEAIYFCVLWHSNHWVFGGGTKLTVL
B14: HB11 (antibody, V domains shown)
VH: SLVKPSQTLSLTCSVTGDSITSGFWNWIRKFPGNKLEYMGYISYSGSTYYNPSLKSRISITRDTSKNQYYLQLNSVTTEDTATYYCARGNGGNYDWYFDVWGAGTTVTVSS
VL: IMSASLGEKVTMSCRASSSVNFMNWYQQKSDDSPKLLIYYISNLAPGVPARFSGSGSGNSYSLTISGMEGEDAATYYCQQFTSSPSWTFGGGTKLEIK
B15: HB5 (antibody, V domains shown)
VH: ELVRPGASVKISCKAFGYTFTNHNINWVKQRPGQGLDWIGYINPYNDYTSYNQKFKGKATLTVDKSSNTAYMELSSLTSEDSAVYYCARSEGWLRRGAWFAYWGQGTLVTVSA
VL: ILSVSPGERVSFSCRASQSIGTSIHWYQQRTNDSPRLLIKYASESISGIPPRFSGSGSGTDFTLSINSVESEDIADYHCQQSNSWPMLTFGAGTKLELK

The binders below were run against T2, recombinant EBV gp350 ectodomain (aa 4–863) (Epstein-Barr virus, strain  …, UniProt P03200-1) (assay: ELISA).
T2 sequence (P03200 4-863): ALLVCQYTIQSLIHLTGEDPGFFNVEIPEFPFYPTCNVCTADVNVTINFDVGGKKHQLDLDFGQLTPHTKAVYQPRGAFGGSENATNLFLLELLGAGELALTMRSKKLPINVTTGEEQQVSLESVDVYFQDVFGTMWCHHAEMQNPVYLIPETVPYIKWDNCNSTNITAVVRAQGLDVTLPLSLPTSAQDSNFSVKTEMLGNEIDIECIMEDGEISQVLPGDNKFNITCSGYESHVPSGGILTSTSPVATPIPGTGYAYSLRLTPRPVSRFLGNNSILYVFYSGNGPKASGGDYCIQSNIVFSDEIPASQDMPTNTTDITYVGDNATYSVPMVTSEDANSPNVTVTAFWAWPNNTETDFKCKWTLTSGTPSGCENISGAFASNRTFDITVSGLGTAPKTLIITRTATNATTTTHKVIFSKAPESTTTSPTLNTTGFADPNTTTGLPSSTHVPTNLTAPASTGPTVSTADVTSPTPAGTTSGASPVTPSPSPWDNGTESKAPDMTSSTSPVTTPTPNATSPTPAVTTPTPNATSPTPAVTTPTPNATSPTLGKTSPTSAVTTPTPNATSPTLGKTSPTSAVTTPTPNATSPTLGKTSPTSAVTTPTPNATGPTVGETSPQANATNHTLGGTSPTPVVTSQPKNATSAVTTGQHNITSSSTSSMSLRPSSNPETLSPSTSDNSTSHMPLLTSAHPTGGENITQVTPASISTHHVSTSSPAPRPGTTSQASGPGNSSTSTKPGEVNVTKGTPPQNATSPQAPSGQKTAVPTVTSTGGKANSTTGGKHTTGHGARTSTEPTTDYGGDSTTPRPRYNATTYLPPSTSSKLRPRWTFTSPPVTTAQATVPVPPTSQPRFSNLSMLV
B1: binds.

Target: T2, recombinant EBV gp350 ectodomain (aa …)
Test: ELISA
Remark: another data set of the same source
B2: binds. B3: binds. B4: binds. B5: binds. B6: binds. B7: binds. B8: binds. B9: binds. B10: binds. B11: binds.

Target: T1, Pep-8 (gp350 aa 142–161)
Test: ELISA
B1: binds. B12: binds. B13: binds. B14: binds. B15: binds.
